Reference: patent US20180155451A1 (published 2018)

T1: FcγRIIa R (human, UniProt P12318 34-217)
T1 construct: extracellular domain; also called FcgRIIa R; FcγRIIa type R
T1 sequence (looked up): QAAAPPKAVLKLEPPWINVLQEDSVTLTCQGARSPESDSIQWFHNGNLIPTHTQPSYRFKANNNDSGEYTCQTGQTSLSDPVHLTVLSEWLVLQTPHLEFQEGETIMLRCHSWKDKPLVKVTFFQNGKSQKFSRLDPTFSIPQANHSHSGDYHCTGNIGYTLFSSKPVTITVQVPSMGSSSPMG

T2: FcγRIIb (human, UniProt P31994 43-217)
T2 construct: extracellular domain; also called FcgRIIb
T2 sequence (looked up): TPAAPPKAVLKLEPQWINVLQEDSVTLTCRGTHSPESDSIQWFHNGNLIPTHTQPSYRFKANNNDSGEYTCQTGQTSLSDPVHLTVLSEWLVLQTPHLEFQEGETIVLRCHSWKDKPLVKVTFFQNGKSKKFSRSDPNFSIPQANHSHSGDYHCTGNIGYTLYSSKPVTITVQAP


How the values were obtained:
FcγRIIa R [1] = molecular target: T1, FcγRIIa R; experiment: He/Con_2aR divided by He/Con_2b (FcγRIIa R over FcγRIIb); SPR (Biacore)
FcγRIIa R [2] = molecular target: T1, FcγRIIa R; experiment: SPR (Biacore), captured antibody, FcγR analyte; binding relative to GpH7-A5/GpH7-B3/GpL16-k0 = 100
FcγRIIb = molecular target: T2, FcγRIIb; experiment: as above

Binder	IIaR/IIb (He_2aR/2b) (FcγRIIa R [1]) [ratio]	He/Con_2aR (IIaR binding) (FcγRIIa R [2]) [control=100]	He/Con_2b (IIb binding) (FcγRIIb) [control=100]
GpH7-A5/GpH7-B3 variant P329_19Q/GpL16-k0 (antibody, human IgG1, kappa, He Ab; IgG1; mutation in one H chain only) heavy 1: not shown heavy 2: not shown light: DIVMTQSPLSLPVTPGEPASISCQASESLVHSNRNTYLHWYLQKPGQSPQLLIYKVSNRFSGVPDRFSGSGSGTDFTLKISRVEAEDVGVYYCSQNTHVPPTFGQGTKVEIERTVAAPSVFIFPPSDEQLKSGTASVVCLLNNFYPREAKVQWKVDNALQSGNSQESVTEQDSKDSTYSLSSTLTLSKADYEKHKVYACEVTHQGLSSPVTKSFNRGEC	1.34	41.1	30.7
GpH7-A5/GpH7-B3 variant P329_11K/GpL16-k0 (antibody, human IgG1, kappa, He Ab; IgG1; mutation in one H chain only; also called GpH7-A5/GpH7-B13/GpL16-k0) heavy 1: not shown heavy 2: not shown light: DIVMTQSPLSLPVTPGEPASISCQASESLVHSNRNTYLHWYLQKPGQSPQLLIYKVSNRFSGVPDRFSGSGSGTDFTLKISRVEAEDVGVYYCSQNTHVPPTFGQGTKVEIERTVAAPSVFIFPPSDEQLKSGTASVVCLLNNFYPREAKVQWKVDNALQSGNSQESVTEQDSKDSTYSLSSTLTLSKADYEKHKVYACEVTHQGLSSPVTKSFNRGEC	1.79	30.2	16.9
GpH7-A5/GpH7-B3 variant P331_01G/GpL16-k0 (antibody, human IgG1, kappa, He Ab; IgG1; mutation in one H chain only) heavy 1: not shown heavy 2: not shown light: DIVMTQSPLSLPVTPGEPASISCQASESLVHSNRNTYLHWYLQKPGQSPQLLIYKVSNRFSGVPDRFSGSGSGTDFTLKISRVEAEDVGVYYCSQNTHVPPTFGQGTKVEIERTVAAPSVFIFPPSDEQLKSGTASVVCLLNNFYPREAKVQWKVDNALQSGNSQESVTEQDSKDSTYSLSSTLTLSKADYEKHKVYACEVTHQGLSSPVTKSFNRGEC	1.34	61	45.4
GpH7-A5/GpH7-B3 variant S298_10E/GpL16-k0 (antibody, human IgG1, kappa, He Ab; IgG1; mutation in one H chain only) heavy 1: not shown heavy 2: not shown light: DIVMTQSPLSLPVTPGEPASISCQASESLVHSNRNTYLHWYLQKPGQSPQLLIYKVSNRFSGVPDRFSGSGSGTDFTLKISRVEAEDVGVYYCSQNTHVPPTFGQGTKVEIERTVAAPSVFIFPPSDEQLKSGTASVVCLLNNFYPREAKVQWKVDNALQSGNSQESVTEQDSKDSTYSLSSTLTLSKADYEKHKVYACEVTHQGLSSPVTKSFNRGEC	1.37	65.1	47.6
GpH7-A5/GpH7-B3 variant S298_18N/GpL16-k0 (antibody, human IgG1, kappa, He Ab; IgG1; mutation in one H chain only) heavy 1: not shown heavy 2: not shown light: DIVMTQSPLSLPVTPGEPASISCQASESLVHSNRNTYLHWYLQKPGQSPQLLIYKVSNRFSGVPDRFSGSGSGTDFTLKISRVEAEDVGVYYCSQNTHVPPTFGQGTKVEIERTVAAPSVFIFPPSDEQLKSGTASVVCLLNNFYPREAKVQWKVDNALQSGNSQESVTEQDSKDSTYSLSSTLTLSKADYEKHKVYACEVTHQGLSSPVTKSFNRGEC	1.41	68	48.1
GpH7-A5/GpH7-B3 variant S298_11K/GpL16-k0 (antibody, human IgG1, kappa, He Ab; IgG1; mutation in one H chain only) heavy 1: not shown heavy 2: not shown light: DIVMTQSPLSLPVTPGEPASISCQASESLVHSNRNTYLHWYLQKPGQSPQLLIYKVSNRFSGVPDRFSGSGSGTDFTLKISRVEAEDVGVYYCSQNTHVPPTFGQGTKVEIERTVAAPSVFIFPPSDEQLKSGTASVVCLLNNFYPREAKVQWKVDNALQSGNSQESVTEQDSKDSTYSLSSTLTLSKADYEKHKVYACEVTHQGLSSPVTKSFNRGEC	1.55	95.1	61.3
GpH7-A5/GpH7-B3 variant S298_15Y/GpL16-k0 (antibody, human IgG1, kappa, He Ab; IgG1; mutation in one H chain only) heavy 1: not shown heavy 2: not shown light: DIVMTQSPLSLPVTPGEPASISCQASESLVHSNRNTYLHWYLQKPGQSPQLLIYKVSNRFSGVPDRFSGSGSGTDFTLKISRVEAEDVGVYYCSQNTHVPPTFGQGTKVEIERTVAAPSVFIFPPSDEQLKSGTASVVCLLNNFYPREAKVQWKVDNALQSGNSQESVTEQDSKDSTYSLSSTLTLSKADYEKHKVYACEVTHQGLSSPVTKSFNRGEC	1.29	79.1	61.4
GpH7-A5/GpH7-B3 variant P329_12R/GpL16-k0 (antibody, human IgG1, kappa, He Ab; IgG1; mutation in one H chain only; also called GpH7-A5/GpH7-B12/GpL16-k0) heavy 1: not shown heavy 2: not shown light: DIVMTQSPLSLPVTPGEPASISCQASESLVHSNRNTYLHWYLQKPGQSPQLLIYKVSNRFSGVPDRFSGSGSGTDFTLKISRVEAEDVGVYYCSQNTHVPPTFGQGTKVEIERTVAAPSVFIFPPSDEQLKSGTASVVCLLNNFYPREAKVQWKVDNALQSGNSQESVTEQDSKDSTYSLSSTLTLSKADYEKHKVYACEVTHQGLSSPVTKSFNRGEC	1.66	29.3	17.6
GpH7-A5/GpH7-B3 variant S298_16H/GpL16-k0 (antibody, human IgG1, kappa, He Ab; IgG1; mutation in one H chain only) heavy 1: not shown heavy 2: not shown light: DIVMTQSPLSLPVTPGEPASISCQASESLVHSNRNTYLHWYLQKPGQSPQLLIYKVSNRFSGVPDRFSGSGSGTDFTLKISRVEAEDVGVYYCSQNTHVPPTFGQGTKVEIERTVAAPSVFIFPPSDEQLKSGTASVVCLLNNFYPREAKVQWKVDNALQSGNSQESVTEQDSKDSTYSLSSTLTLSKADYEKHKVYACEVTHQGLSSPVTKSFNRGEC	1.39	88.5	63.5
GpH7-A5/GpH7-B3 variant S298_12R/GpL16-k0 (antibody, human IgG1, kappa, He Ab; IgG1; mutation in one H chain only) heavy 1: not shown heavy 2: not shown light: DIVMTQSPLSLPVTPGEPASISCQASESLVHSNRNTYLHWYLQKPGQSPQLLIYKVSNRFSGVPDRFSGSGSGTDFTLKISRVEAEDVGVYYCSQNTHVPPTFGQGTKVEIERTVAAPSVFIFPPSDEQLKSGTASVVCLLNNFYPREAKVQWKVDNALQSGNSQESVTEQDSKDSTYSLSSTLTLSKADYEKHKVYACEVTHQGLSSPVTKSFNRGEC	1.48	85.3	57.8
GpH7-A5/GpH7-B3 variant P329_16H/GpL16-k0 (antibody, human IgG1, kappa, He Ab; IgG1; mutation in one H chain only) heavy 1: not shown heavy 2: not shown light: DIVMTQSPLSLPVTPGEPASISCQASESLVHSNRNTYLHWYLQKPGQSPQLLIYKVSNRFSGVPDRFSGSGSGTDFTLKISRVEAEDVGVYYCSQNTHVPPTFGQGTKVEIERTVAAPSVFIFPPSDEQLKSGTASVVCLLNNFYPREAKVQWKVDNALQSGNSQESVTEQDSKDSTYSLSSTLTLSKADYEKHKVYACEVTHQGLSSPVTKSFNRGEC	1.45	56.7	39.1
GpH7-A5/GpH7-B3 variant P329_18N/GpL16-k0 (antibody, human IgG1, kappa, He Ab; IgG1; mutation in one H chain only) heavy 1: not shown heavy 2: not shown light: DIVMTQSPLSLPVTPGEPASISCQASESLVHSNRNTYLHWYLQKPGQSPQLLIYKVSNRFSGVPDRFSGSGSGTDFTLKISRVEAEDVGVYYCSQNTHVPPTFGQGTKVEIERTVAAPSVFIFPPSDEQLKSGTASVVCLLNNFYPREAKVQWKVDNALQSGNSQESVTEQDSKDSTYSLSSTLTLSKADYEKHKVYACEVTHQGLSSPVTKSFNRGEC	1.51	61.2	40.4

The remaining lines, values ahead:

IIaR/IIb (He_2aR/2b) (FcγRIIa R [1]) [ratio]	He/Con_2aR (IIaR binding) (FcγRIIa R [2]) [control=100]	He/Con_2b (IIb binding) (FcγRIIb) [control=100]	Binder
1.23	64.8	52.7	GpH7-A5/GpH7-B3 variant P329_10E/GpL16-k0 (antibody, human IgG1, kappa, He Ab; IgG1; mutation in one H chain only; also called GpH7-A5/GpH7-B15/GpL16-k0) heavy 1: not shown heavy 2: not shown light: DIVMTQSPLSLPVTPGEPASISCQASESLVHSNRNTYLHWYLQKPGQSPQLLIYKVSNRFSGVPDRFSGSGSGTDFTLKISRVEAEDVGVYYCSQNTHVPPTFGQGTKVEIERTVAAPSVFIFPPSDEQLKSGTASVVCLLNNFYPREAKVQWKVDNALQSGNSQESVTEQDSKDSTYSLSSTLTLSKADYEKHKVYACEVTHQGLSSPVTKSFNRGEC
1.5	61.5	41	GpH7-A5/GpH7-B3 variant P329_13S/GpL16-k0 (antibody, human IgG1, kappa, He Ab; IgG1; mutation in one H chain only) heavy 1: not shown heavy 2: not shown light: DIVMTQSPLSLPVTPGEPASISCQASESLVHSNRNTYLHWYLQKPGQSPQLLIYKVSNRFSGVPDRFSGSGSGTDFTLKISRVEAEDVGVYYCSQNTHVPPTFGQGTKVEIERTVAAPSVFIFPPSDEQLKSGTASVVCLLNNFYPREAKVQWKVDNALQSGNSQESVTEQDSKDSTYSLSSTLTLSKADYEKHKVYACEVTHQGLSSPVTKSFNRGEC
1.49	67.9	45.7	GpH7-A5/GpH7-B3 variant P329_15Y/GpL16-k0 (antibody, human IgG1, kappa, He Ab; IgG1; mutation in one H chain only) heavy 1: not shown heavy 2: not shown light: DIVMTQSPLSLPVTPGEPASISCQASESLVHSNRNTYLHWYLQKPGQSPQLLIYKVSNRFSGVPDRFSGSGSGTDFTLKISRVEAEDVGVYYCSQNTHVPPTFGQGTKVEIERTVAAPSVFIFPPSDEQLKSGTASVVCLLNNFYPREAKVQWKVDNALQSGNSQESVTEQDSKDSTYSLSSTLTLSKADYEKHKVYACEVTHQGLSSPVTKSFNRGEC
1.26	98.5	77.9	GpH7-A5/GpH7-B3 variant S298_14T/GpL16-k0 (antibody, human IgG1, kappa, He Ab; IgG1; mutation in one H chain only) heavy 1: not shown heavy 2: not shown light: DIVMTQSPLSLPVTPGEPASISCQASESLVHSNRNTYLHWYLQKPGQSPQLLIYKVSNRFSGVPDRFSGSGSGTDFTLKISRVEAEDVGVYYCSQNTHVPPTFGQGTKVEIERTVAAPSVFIFPPSDEQLKSGTASVVCLLNNFYPREAKVQWKVDNALQSGNSQESVTEQDSKDSTYSLSSTLTLSKADYEKHKVYACEVTHQGLSSPVTKSFNRGEC
1.51	57.3	37.9	GpH7-A5/GpH7-B3 variant P329_14T/GpL16-k0 (antibody, human IgG1, kappa, He Ab; IgG1; mutation in one H chain only) heavy 1: not shown heavy 2: not shown light: DIVMTQSPLSLPVTPGEPASISCQASESLVHSNRNTYLHWYLQKPGQSPQLLIYKVSNRFSGVPDRFSGSGSGTDFTLKISRVEAEDVGVYYCSQNTHVPPTFGQGTKVEIERTVAAPSVFIFPPSDEQLKSGTASVVCLLNNFYPREAKVQWKVDNALQSGNSQESVTEQDSKDSTYSLSSTLTLSKADYEKHKVYACEVTHQGLSSPVTKSFNRGEC
